According to the DeepSol protein solubility set:

experiment: soluble on expression in E. coli; label from the status in PepcDB or PDB records

Soluble on expression in E. coli, not soluble:
MRAIDLNSDLGESFGAWSMGDDAAMLDIVTSANVACGFHAGDPAGILRTLKAAAAKNVTIGAHVSYPDKVGFGRRNMDVASDELTADVIYQIGSLQGLAKAAGTSVRYVKPHGALYNTIAHDRRQAMAVIEAIRAIDPALVLVALAGSTLIELARSEGLQCIAEAFADRAYTPQGTLVSRREPGAVLHDPELVAQRMLRLVQSGSIEAIDGSLVRIEADSICVHGDSPAAVEMARELRRVLEQASTSLQPFAGKRSLEHHHHHH
MRATEDHTIFDRGVGQRDQLQRLWTPYRMNYLAEAPVKRDPNSSASPAQPFTEIPQLSDEEGLVVARGKLVYAVLNLYPYNPGHLMVVPYRRVSELEDLTDLESAELMAFTQKAIRVIKNVSRPHGFNVGLNLGTSAGGSLAEHLHVHVVPRWGGDANFITIIGGSKLEHHHHHH
MRATTIEEPARQVPLYGEYEVVVLGGGPAGIIAAASAARAGRKTLLIERYGFLGGMGTAAGVTNFCGLHGNVYGQAHRLVQGLASELLARIDLLNGLNTPHLILGKVFAQAYDTAAYKIAADELLASHKVNILFHALGAGVVMGDNSRIDALMVETKAGRQAVRSEIFIDCSGDGDLAVWAGAPFEVGDEHGHPLYPSMMLRLNNIDPEKAGEAWRTIPQLMEKALAAGTHKFPRKSAIVRPQKSGIEWRVNFTQVAREDGHAINGIEPDDLTRGEIEGRRQALAAFEFLRTVPGFEKSYIVDLPPQLGIRETRRIKGGYQLSGEDVLGCASFEDSIGVNGWPIEAHVPGDVIFTFPPIPESRGYNELPYRMLVPEGVDNLLVAGRCASMTHEGQSAARVSGACFVMGEAAGSAAALALSGNRIPRDIPIEKLQETLKQQGAFIGRDQPVPEGLLEHHHHHH
MRCPKCNYHKSSVVDSRQAEDGNTIRRRRECEQCHTRFTTFERVEELPLLVIKKDGTREQFSRDKILNGVVQSAQKRPVSSTDIENVISRIEQEVRTTYENEVSSTAIGNLVMDELAELDEITYVRFASVYKSFKDVDEIEELLQQITNRVRGKKKRLNNDETN
MRCPNCNSLDTQVKDSRPTEDSSVIRRRRVCIACNFRFTTFERVQLRELIVIKRNGRRVPFDRDKLMRSVQISLRKRPVDPERVEQMVSAIVRELESGGEAEISSETIGESVMDHLRKLDDVAYVRFASVYRNFREAKDFEAVLGELSHEDEARAALVRK
MREDVPRAVTTICSALQEQIEHGLLPHGSKLPAERKLSEVFDTTRITLREALLQLEAQGLIYREERRGWFISPPRLAYDLIRRSHFHAMVCAQGRVAHTQLLSARLQPASAMICEMLELPALSSVIQICRARRIDQRLVLYVEHYLRPELFPGILDHDLNESLIELYARCYDVHYGPVRFDVVPTALHADAAAALKVSLGSPGLRIARVNYDRKDRLIDCDLEYWRHDAIHVRAMVRDN
MREKLTVIKVGGKIVEEEATLLQLLNDFAAISGHKVLVHGGGRSATKIAAQLGIESKMVNGRRITDAETLKVVTMVYGGLVNKNIVAGLQARGVNALGLTGADMNVIRSVKRPVKEVDYGFVGDVEKVDASLLADLIHKGVVPVMAPLTHDGQGNMLNTNADTIAGETAKALSALFDVTLVYCFEKKGVLRDENDDDSVIPEITRAEFEQYVADGVIQGGMIPKLENSFEAINAGVTEVVITLASAIKDNEGTRIKK
MRELGLEIPVEEVYNANSISLKDAVVHFGGGCTGEVISSEGLVLTNHHCGYGAIQQHSNVEHDYLTEGFWAMNRDAELPTPGLTVTFIDRILDVTSYVNDQLKKDEDPNGTNYLSPSYLSKVAERFAKDENIEVTPATKLELKAFYGGNKYYMFVKTVYSDIRMVGAPPSSIGKFGADTDNWMWPRHTGDFSLFRIYADKNGKPAAYSRDNVPLQVKKHLKISIAGVQEGDFTFVMGFPGRNWRYMISDEVEERMQTTNFMRQHVRGARQKVLMEQMLKDPAVRIHYASKYASSANYWKNAIGMNEGLVRLKVLDTKRKQQEELLARGREKGDDSYQKAFDEIRSIVAHRRDALYHQQALNEALVTALDFMRLPSTTEMVTALKSKNKEQIKTATENLKQAGEKYFASVPFPEVERMVAKTMLQTYASYIPEEQRINIFEIINSRFKGNIDSFVDACFEYSIFGNPKNFEKFIKKPSLYKIGHDWMVLFKYSITDGILKTAIAMKEANQNYDAAHKVWVKGMMDMRQEKGMPIYPDANSTLRLTYGQVLSYEPADGVVYDAHTTLKGVMEKEDPGNWEFVVPQKLKELYKARDYGRYGKDGEMPVCFIVNTDNTGGNSGSPVFNSKGQLVGTAFDRNYEGLTGDIAFRPSSQRAACVDIRYTLFIIDKYAGASHIIDELSIE
MRFTKVVGFLSVLGLAAVFPLTAQAEKAGTAGAGEWDKLGTYTYTYSSPTVYSTGGDFRVCLSGSTPFSVSLHLYEDDPGDNPDDYVGANYFSPGECHTFGSIGKFVDGSNNKAEFFVTDYSGKSKTVTFYDLEHHHHHH
MRGASGGMIQCQYEVHISKNDTYSMDRPHFHEDIEIVLCIAGEGVFFLEPEVFPLYRGQLFLIDSSILHRSVANEEYRCMVFHISSEMLHEFSSLQSNFQARSKRSGLVATLTEEATKYLESLYGKLAEDFGNEFGGDIRQTITLLTFLLTCFSHFNEAEDGEVHTNPSLDKVAPILTYIQEHLGEAMTTQSIADAFYMSKYHLCHIFKEGTGFSLMDYVINCRILKARSLLRNGMRVQEVGENVGFRNNEHFIRTFKKLTGTPPKRYAMMYKDSDQNAQRELVVVEGKDGKIIEGIKA

Soluble on expression in E. coli, soluble:
MRAIDLNSDLGESFGAWSMGDDAAMLDIVTSANVACGFHAGDPAGILRTLKAAAAKNVTIGAHVSYPDKVGFGRRNMDVASDELTADVIYQIGSLQGLAKAAGTSVRYVKPHGALYNTIAHDRRQAMAVIEAIRAIDPALVLVALAGSTLIELARSEGLQCIAEAFADRAYTPQGTLVSRREPGAVLHDPELVAQRMLRLVQSGSIEAIDGSLVRIEADSICVHGDSPAAVEMARELRRVLEQASTSLQPFAGKRS
MRDEEPVRRLETIVEEERRVVVQGYVFDAEVSELKSGRTLLTMKITDYTNSILVKMFSRDKEDAELMSGVKKGMWVKVRGSVQNDTFVRDLVIIANDLNEIAANERQDTAPEGEKRVELHLHTPMSQMDAVTSVTKLIEQAKKWGHPAIAVTDHAVVQSFPEAYSAAKKHGMKVIYGLEANIVDDGVPIAYNETHRRLGSGSGPFHVTLLAQNETGLKNLFKLVSLSHIQYFHRVPRIPRSVLVKHRDGLLVGSGCDKGELFDNLIQKAPEEVEDIARFYDFLEVHPPDVYKPLIEMDYVKDEEMIKNIIRSIVALGEKLDIPVVATGNVHYLNPEDKIYRKILIHSQGGANPLNRHELPDVYFRTTNEMLDCFSFLGPEKAKEIVVDNTQKIASLIGDVKPIKDELYTPRIEGADEEIREMSYRRAKEIYGDPLPKLVEERLEKELKSIIGHGFAVIYLISHKLVKKSLDDGYLVGSRGSVGSSFVATMTEITEVNPLPPHYVCPNCKHSEFFNDGSVGSGFDLPDKNCPRCGTKYKKDGHDIPFETFLGFKGDKVPDIDLNFSGEYQPRAHNYTKVLFGEDNVYRAGTIGTVADKTAYGFVKAYASDHNLELRGAEIDRLAAGCTGVKRTTGQHPGGIIVVPDYMEIYDFTPIQYPADDTSSEWRTTHFDFHSIHDNLLKLDILGHDDPTVIRMLQDLSGIDPKTIPTDDPDVMGIFSSTEPLGVTPEQIMCNVGTIGIPEFGTRFVRQMLEETRPKTFSELVQISGLSHGTDVWLGNAQELIQNGTCTLSEVIGCRDDIMVYLIYRGLEPSLAFKIMESVRKGKGLTPEFEAEMRKHDVPEWYIDSCKKIKYMFPKAHAAAYVLMAVRIAYFKVHHPLLYYASYFTVRAEDFDLDAMIKGSAAIRKRIEEINAKGIQATAKEKSLLTVLEVALEMCERGFSFKNIDLYRSQATEFVIDGNSLIPPFNAIPGLGTNVAQAIVRAREEGEFLSKEDLQQRGKLSKTLLEYLESRGCLDSLPDHNQLSLFSGGHHHHHHHH
MRDVLEVLEFPRVRALLAERAKTPLGRELALALAPLPREEAEKRHELTGEALSYPYALPEAGTLREAYGRALAGARLSGPELLKAAKALEEAMALKEELLPLKNALSQVAEGIGDHTPFLERVRKALDEEGAVKDEASPRLAQIRRELRPLRQQILDRLYALMDRHREAFQDRFVTLRRERYCVPVRAGMAQKVPGILLDESESGATLFIEPFSVVKLNNRLQALRLKEEEEVNRILRDLSERLAKDEGVPKTLEALGLLDLVQAQAALARDLGLSRPAFGERYELYRAFHPLIPDAVRNSFALDEKNRILLISGPNMGGKTALLKTLGLAVLMAQSGLFVAAEKALLAWPDRVYADIGDEQSLQENLSTFAGHLRRLREMLEEATSHSLVLIDELGSGTDPEEGAALSQAILEALLERGVKGMVTTHLSPLKAFAQGREGIQNASMRFDLEALRPTYELVLGVPGRSYALAIARRLALPEEVLKRAEALLPEGGRLEALLERLEAERLALEAERERLRRELSQVERLRKALAEREARFEEERAERLKALEEEVRAELLKVEAELKALKEKARTEGKRDALRELMALRERYAKKAPPPPPPPGLAPGVLVEVPSLGKRGRVVELRGEEVLVQVGPLKMSLKPQEVKPLPEAEPGKPLLAKPRREVKEVDLRGLTVAEALLEVDQALEEARALGLSTLRLLHGKGTGALRQAIREALRRDKRVESFADAPPGEGGHGVTVVALRP
MREEFLEEIPLDAPPEEAKELRTEVMTLNVGPQHPSTHGVLRLMVTLSGEEVLEVVPHIGYLHTGFEKTMEHRTYLQNITYTPRMDYLHSFAHDLAYALAVEKLLGAVVPPRAETIRVILNELSRLASHLVFLGTGLLDLGALTPFFYAFRERETILDLFEWVTGQRFHHNYIRIGGVKEDLPEEFVPELKKLLEVLPHRIDEYEALFAESPIFYERARGVGVIPPEVAIDLGLTGGSLRASGVNYDVRKAYPYSGYETYTFDVPLGERGDVFDRMLVRIREMRESVKIIKQALERLEPGPVRDPNPQITPPPRHLLETSMEAVIYHFKHYTEGFHPPKGEVYVPTESARGELGYYIVSDGGSMPYRVKVRAPSFVNLQSLPYACKGEQVPDMVAIIASLDPVMGDVDR
MRELQTLLISCLKQERISGSMFRVLGKVVNHVVCEMFKHQDIAWDGLRDYIVSQSKTKFQRAVYIFQCLTTPLEDDEFVIHVMENLLPEIRIRLNPPRDLLVDNSCWVLAFTGAFCATIHLREFPSQAESVKEIANKMIDSVRELVEIGIEVGLVRRAFRDLENIVKNLNKWNGTGS
MRFSIVSLLHRLFLAGALALAAGAQAAPDPMGPPDKFVLDAATQTIDILKSDQNVKAGNLAHINQVVDAHILPFVNFQKTTRLAAGRYWRQATDTQKAELAKAFRGTLVRTYSGALTKVDNGTTIKLLPFRGDPNADDVVVRSLISQSNSQPVQVDYRLEKTPQGWRIYDMNVEGIWLIENYRNQFAQQINQNGIDGLIQALNQRNQAAALEHHHHHH
MRGEAGELAVSSGEIATGALSPEKQQEQELMGKLAATGKLPARPASSFLQKKLQQRKFFDSGDYAMDKSKAGTGLGSKPHPLAGGPPPAAPPVVAQRSPAPAATTPSPSASPISQQTNRPSSDRNSDDDNLQIPRPDTVPQRKASIINPSVHCKLSPAPHVQHHDAASPNATSE
